Consider 36 sequences from the supplement of paper PMC10567573.

The nature of the series: protein stability index of a GFP-peptide fusion (GPS, HEK-293T) (PSI 1-6); higher = more stable. Conditions: c terminus: a fixed tail appended.

± gives the standard deviation.
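Further: 24-mer peptide tiles fused after GFP, lentivirally expressed, FACS-sorted into six equal bins by GFP/DsRed ratio, decoded by Illumina sequencing, PSI is the read-weighted mean bin number.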

For RVIEVLPRGATAAVLAPDSSNASS [SEPHS2], the protein stability index (treatment: DMSO) worked out at 4.31 ± 0.19 and the protein stability index (treatment: MLN4924 1 uM, 8 h) stood at 4.42 ± 0.18.
With QFCAQRFGRKDHLTRHTKKTHSQE [PLAGL1], the protein stability index came out at 4.07 ± 0.43 (treatment: DMSO) and 4.18 ± 0.27 (treatment: MLN4924 1 uM, 8 h).
EDGIHTLTCALMLLNTDLHGHNIG [PSD2]: the protein stability index reads like this: (treatment: DMSO) 2.78 ± 0.5; (treatment: MLN4924 1 uM, 8 h) 2.75 ± 0.36.
As to LKTFVKQTDHIKGIRQITSDDFCT [GFOD1], the protein stability index reads like this: (treatment: DMSO) 3.29 ± 0.4; (treatment: MLN4924 1 uM, 8 h) 3.26 ± 0.23.
For SDSGSDKSLEGGGTAFDAETDSEM [SMG5], in that order: 5.54 ± 0.15 and 5.62 ± 0.19.
On to LRRVLDELTLARTDLEMQIEGLKE [KRT16], for which the protein stability index runs as follows: (treatment: DMSO) 2.9 ± 0.52; (treatment: MLN4924 1 uM, 8 h) 3.07 ± 0.14.
As to EDSNWEKSPDNEDSGDSKDIRLTL [GOLPH3L], the protein stability index by setting is: (treatment: DMSO) 5.37 ± 0.16; (treatment: MLN4924 1 uM, 8 h) 5.37 ± 0.12.
With ETGKLLWKVRYDTFIVSCKFSPDG [WDR88], the protein stability index turned out to be 2.55 ± 0.37 (treatment: DMSO) and 2.04 ± 0.26 (treatment: MLN4924 1 uM, 8 h).
Turning to HSYLSGYISLLLRAEPYPTSRFGS [NR2F2], the protein stability index (treatment: DMSO) stood at 3.06 ± 0.33 and the protein stability index (treatment: MLN4924 1 uM, 8 h) was 2.85 ± 0.2.
Consider VAVNGESVETLDHDSVVEMIRKGG [PDZK1], for which the protein stability index stood at 4.61 ± 0.27 (treatment: DMSO) and 4.59 ± 0.24 (treatment: MLN4924 1 uM, 8 h).
For LYQTELVENECYQVFLDRINRADY [TOR1AIP2], the protein stability index by setting is: (treatment: DMSO) 2.45 ± 0.27; (treatment: MLN4924 1 uM, 8 h) 2.71 ± 0.15.
EEEMRSHYVAQTGILWLLMNNCFL [GAGE1]: the protein stability index (treatment: DMSO) was 3.15 ± 0.36 and the protein stability index (treatment: MLN4924 1 uM, 8 h) came out at 3.2 ± 0.35.
For LKLVSFSKLCTSYSHSSTRDGRRD [GOSR1], in that order: 2.81 ± 0.3 and 2.79 ± 0.35.
Taken in the same sequence, the figures for YESEILPSTPNPQPPSCQGEAAGS [DUSP5] were 5.24 ± 0.13 and 5.296 ± 0.002.
Taken in the same sequence, the figures for FAKLEKLTILAKRKSLFDDKAVEI [STX5] were 2.47 ± 0.23 and 2.48 ± 0.53.
With MSPLQAMSSYTVAGRNVLRWDLSP [NLN], the protein stability index stood at 2.06 ± 0.31 (treatment: DMSO) and 2.55 ± 0.42 (treatment: MLN4924 1 uM, 8 h).
As for DGNLCLHVPNPPSGISFPSVVDHP [HESX1], the protein stability index amounted to 3.73 ± 0.5 (treatment: DMSO) and 3.78 ± 0.15 (treatment: MLN4924 1 uM, 8 h).
SLKEELMCLKKNHEEEVSVLRCQL [KRT36]: the protein stability index runs as follows: (treatment: DMSO) 3.09 ± 0.31; (treatment: MLN4924 1 uM, 8 h) 3.23 ± 0.4.
For AAGVFSNPAVRTAAANAAAGAAEN [SCAMP3], the protein stability index is 5.03 ± 0.1 (treatment: DMSO) and 5.06 ± 0.23 (treatment: MLN4924 1 uM, 8 h).
Regarding ASRTWCFYNTEDIKDWEDRFYLLL [PTGFR], the protein stability index is, setting by setting: (treatment: DMSO) 2.15 ± 0.6; (treatment: MLN4924 1 uM, 8 h) 2.46 ± 0.38.
For the sequence DDKTDKRIFTFICKDSESNKHLCY [GULP1], the protein stability index by setting is: (treatment: DMSO) 2.47 ± 0.45; (treatment: MLN4924 1 uM, 8 h) 2.51 ± 0.26.
Take MSGQTLTDRIAAAQYSVTGSAVAR [SNAP91]: the protein stability index is 4 ± 0.19 (treatment: DMSO) and 3.98 ± 0.2 (treatment: MLN4924 1 uM, 8 h).
On to RKFSRECEDQKQIKKPESFSKQIV [NEUROD6], for which the protein stability index (treatment: DMSO) stood at 4.43 ± 0.27 and the protein stability index (treatment: MLN4924 1 uM, 8 h) worked out at 4.21 ± 0.43.
With NVHATTATGDTALTYACENGHTDV [ANKRD17], the protein stability index (treatment: DMSO) amounted to 4.82 ± 0.33 and the protein stability index (treatment: MLN4924 1 uM, 8 h) came to 4.88 ± 0.19.
On to QCRHTLEQHNWNIEAAVQDRLNEQ [FAF2], for which the protein stability index (treatment: DMSO) was 3.89 ± 0.17 and the protein stability index (treatment: MLN4924 1 uM, 8 h) worked out at 3.87 ± 0.18.
The sequence LSFSDALLSIIATVMILPVTHTEI [TMEM175] displayed a protein stability index (treatment: DMSO) of 3.15 ± 0.29 and a protein stability index (treatment: MLN4924 1 uM, 8 h) of 2.88 ± 0.58.
Consider EPREFSSRNFGVRNQGNFSVVGTV [ZC2HC1C], for which the protein stability index reads like this: (treatment: DMSO) 3.06 ± 0.31; (treatment: MLN4924 1 uM, 8 h) 3.01 ± 0.24.
Regarding LAPAGQTSEESRPRLSQLSVTDVT [TNXB], the protein stability index is, setting by setting: (treatment: DMSO) 4.64 ± 0.68; (treatment: MLN4924 1 uM, 8 h) 5.13 ± 0.31.
Consider TLKCLSHHVADAYTSSQKVSPIQI [TOR1AIP2], for which the protein stability index was 2.53 ± 0.096 (treatment: DMSO) and 2.6 ± 0.37 (treatment: MLN4924 1 uM, 8 h).
Sequence INILQNEKSHQVLAQLLDTLLAIG [INTS4] yielded a protein stability index (treatment: DMSO) of 2.43 ± 0.31 and a protein stability index (treatment: MLN4924 1 uM, 8 h) of 2.17 ± 0.2.
As to AAEYHAQRLKAVIVIQTYYRQWHA [IQUB], the protein stability index is, setting by setting: (treatment: DMSO) 4.97 ± 0.25; (treatment: MLN4924 1 uM, 8 h) 4.88 ± 0.32.
As for CGVILYILLVGYPPFWDEDQHRLY [CAMK2A], the protein stability index came to 2.98 ± 0.6 (treatment: DMSO) and 3.24 ± 0.91 (treatment: MLN4924 1 uM, 8 h).
Take AVIRWMHSFNFVLSANLHGGAVVA [CPN1]: the protein stability index was 2.95 ± 0.71 (treatment: DMSO) and 2.88 ± 0.19 (treatment: MLN4924 1 uM, 8 h).
Turning to LGSTKLSDKDKAVGIFNTVINPML [OR3A1], the protein stability index runs as follows: (treatment: DMSO) 3 ± 0.46; (treatment: MLN4924 1 uM, 8 h) 3.19 ± 0.28.
In the case of KRQVPTEQAQAYAERLGVTFFEVS [RAB40B], the protein stability index is, setting by setting: (treatment: DMSO) 2.99 ± 0.22; (treatment: MLN4924 1 uM, 8 h) 3.23 ± 0.23.
For LLASLTGGVLIDRYGRRTAIILSS [SLC2A12], the protein stability index is, setting by setting: (treatment: DMSO) 2.86 ± 0.5; (treatment: MLN4924 1 uM, 8 h) 3.06 ± 0.87.
